doi:10.1101/2022.08.12.503727

Target: T1, RBP45d (Arabidopsis thaliana, UniProt Q8VXZ9 1-425)
T1 sequence: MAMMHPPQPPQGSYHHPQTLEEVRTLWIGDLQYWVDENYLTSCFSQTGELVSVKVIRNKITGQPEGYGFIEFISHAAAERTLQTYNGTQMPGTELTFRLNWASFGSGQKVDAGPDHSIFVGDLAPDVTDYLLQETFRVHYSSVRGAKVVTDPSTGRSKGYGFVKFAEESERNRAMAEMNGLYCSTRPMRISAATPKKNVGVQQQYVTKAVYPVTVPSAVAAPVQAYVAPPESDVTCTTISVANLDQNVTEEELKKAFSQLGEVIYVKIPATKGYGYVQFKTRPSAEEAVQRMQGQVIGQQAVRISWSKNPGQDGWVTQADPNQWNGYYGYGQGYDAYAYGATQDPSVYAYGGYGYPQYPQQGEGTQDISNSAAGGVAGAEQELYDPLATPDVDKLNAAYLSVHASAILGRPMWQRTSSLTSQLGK
Experiment: EMSA

Binder: GUUUUGUUCGGUUUUGGUUUAGAUUUUUG (ssRNA) [Cy5-LPD1-IN2]
- binding result: binds
